The numbers were not newly measured in article PMC1617126, which cites them from elsewhere.

What is called Kd is the constant that tells how readily two partners part at equilibrium.

The data set concerns the target protective antigen (PA) (Bacillus anthracis) (UniProt P13423).

As to ANTXR2 I domain (from UniProt P58335), the Kd is 960 nM.
